{"source": "patent US8030043B2", "about": "“β-galactoside-α2,3-sialyltransferase, a gene encoding thereof, and a method for producing thereof” (Japan Tobacco Inc., priority 2005, dated 2011)", "molecules": {"B1": {"name": "FAJ-N0C0 first clone: E. coli-expressed full-length JT-FAJ-16 sialyltransferase, nucleotides 1 to 1209 of SEQ ID NO: 30 (protein, listed as Vibrio sp.)", "chain": "MKNIITKRMLIILSSLFTIIGCNNDNSTTTNNNAIEIYVDRATLPTIQQMTKIVSQKTSNKKLISWSRYPITDKSLLKKINAEFFKEQFELTESLKNIILSENIDNLIIHGNTLWSIDVVDIIKEVNLLGKNIPIELHFYDDGSAEYVRIYEFSKLPESEQKYKTSLSKNNIKFSIDGTDSFKNTIENIYGFSQLYPTTYHMLRADIFDTTLKINPLRELLSNNIKQMKWDYFKDFNYKQKDIFYSLTNFNPKEIQEDFNKNSNKNFIFIGSNSATATAEEQINIISEAKKENSSIITNSISDYDLFFKGHPSATFNEQIINAHDMIEINNKIPFEALIMTGILPDAVGGMGSSVFFSIPKEVKNKFVFYKSGTDIENNSLIQVMLKLNLINRDNIKLISDI", "modifications": "CDS (1)..(1209) /gene=“FAJ16-23ST” /product=“Beta-galactoside- alpha 2,3-sialyltransferase”"}}, "assay_type_in_all_cases": "biochemical", "key": {"[1]": {"system": "β-galactoside-α2,3-sialyltransferase from Photobacterium phosphoreum JT-ISH-467", "experiment": "Determination of binding mode of sialic acid using pyridylaminated sugar chain, HPLC", "details": "acceptor 2.0 μM, CMP-NeuAc 5.7 μM, enzyme 20 mU/ml, pH 6.0, 25° C., 3 hours", "method": "(§1) Using the enzyme obtained in Example 2, the enzymatic reaction was carried out using a pyridylaminated sugar chain as a glycosyl acceptor substrate. The pyridylaminated sugar chain used for analysis was pyridylaminated lactose (Galβ1-4Glc-PA, Takara Bio Inc., Japan). The glycosyl acceptor substrate, CMP-NeuAc and the enzyme were dissolved at 2.0 μM, 5.7 μM and 20 mU/ml, respectively, in 25 μl of 20 mM cacodylate buffer (pH 6.0), and then reacted at 25° C. for 3 hours. After the reaction, the reaction solution was treated at 100° C. for 2 minutes to inactivate the enzyme, followed by HPLC to analyze the reaction product.\nThe HPLC system used was Shimadzu LC10A (Shimadzu Corporation, Japan) and the analytical column used was Takara PALPAK Type R (Takara Bio Inc., Japan). The column which had been equilibrated with 100 mM acetate-triethylamine (pH 5.0) containing 0.15% N-butanol was injected with the reaction solution diluted with Eluent A (100 mM acetate-triethylamine, pH 5.0). […] The analysis was performed under the following conditions: flow rate: 1 ml/min, column temperature: 40° C., detection: fluorescence (Ex: 320 nm, Em: 400 nm)."}, "[2]": {"experiment": "Sialyltransferase activity in E. coli homogenate (crude enzyme solution), transfer of 14C-NeuAc from CMP-NeuAc to lactose", "details": "lactose acceptor", "method": "Sialyltransferase activity was measured as described in J. Biochem., 120, pp. 104-110 (1996) (which is hereby incorporated by reference in its entirety). More specifically, the enzymatic reaction was accomplished by using CMP-NeuAc (70 nmol, containing 25000 cpm CMP-NeuAc in which NeuAc was labeled with ^14C, 356 cpm/nmol; NeuAc represents N-acetylneuraminic acid) as a glycosyl donor substrate, lactose (1.25 μmol) as a glycosyl acceptor substrate, NaCl added to give a concentration of 0.5 M, and the enzyme-containing reaction solution (30 μl) prepared as described above. The enzymatic reaction was carried out at 25° C. for 10 to 30 minutes. After completion of the reaction, 1.97 ml of 5 mM phosphate buffer (pH 6.8) was added to the reaction solution, which was then applied to a Dowex 1×8 (PO4^3− form, 0.2×2 cm, BIO-RAD) column. The radioactivity was measured for the reaction product, i.e., sialyllactose contained in the eluate (0 to 2 ml) from this column to calculate the enzyme activity.\nAn induction experiment of protein expression was performed on the two 467-N0C0 clones and the three 467-N2C0 clones obtained in (4) above. A single colony of E. coli TB1 having the expression vector pTrc99A carrying each clone was inoculated into LB medium (5 ml) containing an antibiotic, ampicillin (final concentration 100 μg/mL), and pre-cultured at 30° C. to about A600=0.5, followed by addition of IPTG (isopropyl-β-D(−)-thiogalactopyranoside, Wako Pure Chemical Industries, Ltd. Japan) at a final concentration of 1 mM. After culturing with shaking at 30° C. for an additional 4 hours, the cells in 2 ml culture solution were collected by centrifugation. These cells were suspended in 200 μl of 20 mM BisTris buffer (pH 7.0) containing 0.336% Triton X-100 and 0.5 M sodium chloride, and ultrasonically homogenized under ice cooling. The resulting homogenate was defined as a crude enzyme solution and provided for activity measurement. The reaction was carried out in duplicate, and the reaction composition was the same as shown in Example 1, except that the reaction time was set to 15 hours.\nIn the same manner as shown in Example 5(5), an induction experiment of protein expression was performed on 2 clones, i.e., the first clone of ISH224-N0C0 and the first clone of ISH224-N1C0 to measure their enzyme activity.\nIn the same manner as shown in Example 5(5), an induction experiment of protein expression was performed on 3 clones, i.e., the first clone of FAJ-N0C0 as well as the first and second clones of FAJ-N1C0 to measure their enzyme activity."}, "[3]": {"experiment": "Confirmation of α2,3 sialyltransferase activity of E. coli-expressed enzyme with pyridylaminated lactose, HPLC", "details": "pyridylaminated lactose 2.0 μM, CMP-sialic acid 5.7 μM, pH 6.0, 25° C., 6 hours", "method": "as §1\nThe HPLC system used was Shimadzu LC10A (Shimadzu Corporation, Japan) and the analytical column used was Takara PALPAK Type R (Takara Bio Inc., Japan). The column which had been equilibrated with 100 mM acetate-triethylamine (pH 5.0) containing 0.15% N-butanol was injected with the reaction solution diluted with Eluent A (100 mM acetate-triethylamine, pH 5.0). For elution of the pyridylaminated sugar chain, Eluent A (100 mM acetate-triethylamine, pH 5.0) and Eluent B (100 mM acetate-triethylamine containing 0.5% n-butanol, pH 5.0) were used to successively elute the pyridylaminated sugar chain with a linear gradient of 30% to 100% Eluent B (0 to 35 minutes) and then 100% Eluent B (35 to 50 minutes). The analysis was performed under the following conditions: flow rate: 1 ml/min, column temperature: 40° C., detection: fluorescence (Ex: 320 nm, Em: 400 nm).\nAs in the case of Example 3, pyridylaminated lactose (Galβ1-4Glc-PA, PA-Sugar Chain 026, Takara Bio Inc., Japan) was used as a glycosyl acceptor to carry out the enzymatic reaction. After the reaction, the reaction solution was heated at 95° C. for 5 minutes to inactivate the enzyme, followed by HPLC analysis. It should be noted that the enzymatic reaction was accomplished at 25° C. for 6 hours using pyridylaminated lactose and CMP-sialic acid dissolved at 2.0 μM and 5.7 μM, respectively, in 25 μl of 20 mM cacodylate buffer (pH 6.0) (Reaction 1). On the other hand, a control experiment (Reaction 2) was carried out using a reaction solution free from CMP-sialic acid. Further, to clarify the retention time of standards, the crude enzyme solution was inactivated by thermal treatment (95° C., 5 minutes) and tested in the presence of pyridylaminated lactose and pyridylaminated α2,3-sialyllactose (pyridylaminated 3′-sialyllactose) (Neu5Acα2-3Galβ1-4Glc-PA, PA-Sugar Chain 029, Takara Bio Inc., Japan)."}, "[4]": {"details": "JT-FAJ-16 gene clones, as Example 5(5)"}}}
{"molecule": "OC[C@@H](O)[C@@H](O[C@@H]1O[C@H](CO)[C@H](O)[C@H](O)[C@H]1O)[C@H](O)[C@@H](O)CNc1ccccn1", "note": "[PA-Sugar Chain 026, pyridylaminated lactose]", "values": [{"measurement": "Reaction product from pyridylaminated sugar chain (binding mode of sialic acid)", "setting": "[1]", "value": "pyridylaminated α2,3-sialyllactose (pyridylaminated 3′-sialyllactose) was synthesized"}]}
{"molecule": "B1", "values": [{"measurement": "Radioactivity (cpm) Round 1", "setting": "[2]; [4]", "value": 11012, "unit": "cpm"}, {"measurement": "Radioactivity (cpm) Round 2", "setting": "[2]; [4]", "value": 12056, "unit": "cpm"}, {"measurement": "Radioactivity (cpm) Average", "setting": "[2]; JT-FAJ-16 gene clones, as Example 5(5), average of duplicate", "value": 11534, "unit": "cpm"}, {"measurement": "Sialyltransferase activity in crude enzyme solution (in words)", "setting": "[2]; CMP-14C-NeuAc donor", "value": "sialyltransferase activity was observed"}, {"measurement": "α2,3 sialyltransferase activity (formation of pyridylaminated α2,3-sialyllactose)", "setting": "[3]", "value": "a peak of pyridylaminated α2,3-sialyllactose (pyridylaminated 3′-sialyllactose) was detected"}]}
